# T1: human ANGPTL3 17-220 (human)
# T1 chain: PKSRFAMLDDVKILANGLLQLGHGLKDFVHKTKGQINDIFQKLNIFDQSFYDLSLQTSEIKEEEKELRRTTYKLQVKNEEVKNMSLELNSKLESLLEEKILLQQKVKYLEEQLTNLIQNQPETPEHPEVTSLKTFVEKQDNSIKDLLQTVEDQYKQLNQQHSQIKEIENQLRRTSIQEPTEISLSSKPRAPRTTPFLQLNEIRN
# What was measured:
# human ANGPTL3 17-220 [1] = target: T1, human ANGPTL3 17-220; test: SPR, pH 6.0, 37C
# human ANGPTL3 17-220 [2] = target: T1, human ANGPTL3 17-220; test: SPR, pH 7.4, 37C
# human ANGPTL3 17-220 [3] = target: T1, human ANGPTL3 17-220; test: SPR, pH 6.0, 37C
binding result (human ANGPTL3 17-220 [1]),Kd (human ANGPTL3 17-220 [2]) [nM],Kd (human ANGPTL3 17-220 [3]) [nM],Binder
no binding,43,–,"tmAb2 (antibody, V domains shown) VH: EVQLLESGGGLVQPGGSLRLSCAASDFNFRSYWMTWVRQAPGKGLEWVSSISSHSTYIYYADSVKGRFTISRDNSKNTLYLQMNSLRAEDTATYYCAREGWYDNWFDPWGQGTLVTVSS VL: EIVLTQSPGTLSLSPGERATLSCRASQNIRSPYLAWYQQKPGQAPRLLIYGVSSRAAGIPDRFSGSGSGTDFTLTISRLEPEDFAVYYCQQYDDHPYTFGQGTKLEIK"
no binding,56,–,"tmAb4 (antibody, V domains shown) VH: EVQLLESGGGLVQPGGSLRLSCAASGFNFESYWMTWVRQAPGKGLEWVSSISSHSTYIYYADSVKGRFTISRDNSKNTLYLQMNSLRAEDTATYYCAREGWYDNWNDPWGQGTLVTVSS VL: EIVLTQSPGTLSLSPGERATLSCRASQNIRSPYLAWYQQKPGQAPRLLIYGVSSRAAGIPDRFSGSGSGTDFTLTISRLEPEDFAVYYCQQYDDHPYTFGQGTKLEIK"
–,21,2000,"tmAb1 (antibody, V domains shown) VH: EVQLLESGGGLVQPGGSLRLSCAASGFNFRSYWMTWVRQAPGKGLEWVSSISSHSTYIYYADSVKGRFTISRDNSKNTLYLQMNSLRAEDTATYYCAREGWYDNWFDPWGQGTLVTVSS VL: EIVLTQSPGTLSLSPGERATLSCRASQNIRSPYLAWYQQKPGQAPRLLIYGVSSRAAGIPDRFSGSGSGTDFTLTISRLEPEDFAVYYCQQYDDHPYTFGQGTKLEIK"
–,18,3000,"tmAb3 (antibody, V domains shown) VH: EVQLLESGGGLVQPGGSLRLSCAASGFNFESYWMTWVRQAPGKGLEWVSSISSHSTYIYYADSVKGRFTISRDNSKNTLYLQMNSLRAEDTATYYCAREGWYDNWFDPWGQGTLVTVSS VL: EIVLTQSPGTLSLSPGERATLSCRASQNIRSPYLAWYQQKPGQAPRLLIYGVSSRAAGIPDRFSGSGSGTDFTLTISRLEPEDFAVYYCQQYDDHPYTFGQGTKLEIK"
